Where two headings read alike, the source gives them in different places.
Columns and labels:
[1] = target: HIV-1 Env of strain Du156.12 (HIV-1)
[2] = target: HIV-1 Env of strain ZM247v1(Rev-) (HIV-1)
[3] = target: Env (gp120) of HIV-1 strain SC422661.8 (HIV-1)
[4] = target: Env (gp120) of HIV-1 strain AC10.0.29 (HIV-1)
[5] = target: Env (gp120) of HIV-1 strain QH0692.42 (HIV-1)
[6] = target: Env (gp120) of HIV-1 strain TRO.11 (HIV-1)
[7] = target: Env (gp120) of HIV-1 strain ZM214M.PL15 (HIV-1)
[8] = target: Env (gp120) of HIV-1 strain T257-31 (HIV-1)
[9] = target: Env (gp120) of HIV-1 strain ZM135M.PL10a (HIV-1)
[10] = target: Env (gp120) of HIV-1 strain ZM109F.PB4 (HIV-1)
[11] = target: Env (gp120) of HIV-1 strain ZM53M.PB12 (HIV-1)
[12] = target: Env (gp120) of HIV-1 strain ZM249M.PL1 (HIV-1)
[13] = target: Env (gp120) of HIV-1 strain ZM197M.PB7 (HIV-1)
[14] = target: Env (gp120) of HIV-1 strain Du156.12 (HIV-1)
[15] = target: Env (gp120) of HIV-1 strain ZM214M.PL15 (HIV-1); remark: listed apart in the source
[16] = target: Env (gp120) of HIV-1 strain CAP45.2.00.G3 (HIV-1)
[17] = target: Env (gp120) of HIV-1 strain TRO.11 (HIV-1); remark: listed apart in the source
[18] = target: Env (gp120) of HIV-1 strain CAP210.2.00.E8 (HIV-1)
[19] = target: Env (gp120) of HIV-1 strain 3016.v5.c45 (HIV-1)
[20] = target: Env (gp120) of HIV-1 strain C2101.c01 (HIV-1)
[21] = target: Env (gp120) of HIV-1 strain SC422661.8 (HIV-1); remark: listed apart in the source
[22] = target: Env (gp120) of HIV-1 strain AC10.0.29 (HIV-1); remark: listed apart in the source
[23] = target: Env (gp120) of HIV-1 strain Du172.17 (HIV-1)
[24] = target: Env (gp120) of HIV-1 strain CAP45.2.00.G3 (HIV-1); remark: listed apart in the source
[25] = target: Env (gp120) of HIV-1 strain CAP210.2.00.E8 (HIV-1); remark: listed apart in the source
[26] = target: Env (gp120) of HIV-1 strain T255-34 (HIV-1)
[27] = target: Env (gp120) of HIV-1 strain 3718.v3.c11 (HIV-1)
[28] = target: gp160 of HIV-1 strain YU2 with a substitution of 458gp120 (HIV-1)
[29] = target: HIV-1 Env of strain AC10.0.29 (HIV-1)
[30] = target: HIV-1 Env of strain CAP45.2.00.G3 (HIV-1)
[31] = target: HIV-1 Env of strain ZM214M.PL15.11 (HIV-1)
[32] = target: HIV-1 Env of strain T257-31 (HIV-1)
[33] = target: HIV-1 Env of strain SC422661.8 (HIV-1)
[34] = target: HIV-1 Env of strain QH0692.42 (HIV-1)
[35] = target: HIV-1 Env of strain TRO.11 (HIV-1)

## NIH45-46 G54Y IgG (antibody)
[1]
  In vitro neutralization IC80: 0.026 µg/mL
[2]
  In vitro neutralization IC80: 3.57 µg/mL

## NIH45-46 IgG (antibody)
[3]
  neutralization IC50: 0.05 µg/mL
[4]
  neutralization IC50: 0.9 µg/mL
[5]
  neutralization IC50: 0.7 µg/mL
[6]
  neutralization IC50: 1.9 µg/mL
[7]
  neutralization IC50: 0.3 µg/mL
[8]
  neutralization IC50: 0.5 µg/mL
[9]
  neutralization IC50: 0.36 µg/mL
[10]
  neutralization IC50: 0.22 µg/mL
[11]
  neutralization IC50: 0.65 µg/mL
[12]
  neutralization IC50: 0.02 µg/mL
[13]
  neutralization IC50: 0.14 µg/mL
[14]
  neutralization IC50: 0.01 µg/mL
[15]
  neutralization IC50: 0.05 µg/mL
[16]
  neutralization IC50: > 50 µg/mL
[17]
  neutralization IC50: 1 µg/mL
[18]
  neutralization IC50: > 50 µg/mL
[19]
  neutralization IC50: > 30 µg/mL
[20]
  neutralization IC50: 12.8 µg/mL

## NIH45-46^G54F IgG (antibody)
[21]
  neutralization IC50: 0.02 µg/mL
[16]
  neutralization IC50: > 50 µg/mL
[22]
  neutralization IC50: 0.3 µg/mL
[17]
  neutralization IC50: 0.08 µg/mL
[18]
  neutralization IC50: > 50 µg/mL
[23]
  neutralization IC50: 16 µg/mL

## NIH45-46 G54W IgG (antibody)
[1]
  In vitro neutralization IC80: 0.005 µg/mL
[2]
  In vitro neutralization IC80: 2.6 µg/mL

## NIH45-46^G54Y IgG (antibody)
[24]
  neutralization IC50: > 50 µg/mL
[21]
  neutralization IC50: 0.06 µg/mL
[16]
  neutralization IC50: 45 µg/mL
[22]
  neutralization IC50: 0.4 µg/mL
[17]
  neutralization IC50: 0.1 µg/mL
[18]
  neutralization IC50: > 50 µg/mL

## NIH45-46 G54F IgG (antibody)
[1]
  In vitro neutralization IC80: 0.019 µg/mL
[2]
  In vitro neutralization IC80: 2.45 µg/mL

## NIH45-46^G54W IgG (antibody)
[24]
  neutralization IC50: 32.2 µg/mL
[25]
  neutralization IC50: > 50 µg/mL
[26]
  improvement of neutralization potency over NIH45-46: > 700 fold
[27]
  improvement of neutralization potency over NIH45-46: 2000 fold
[28]
  neutralization of pseudovirus carrying mutant gp160: > 1500 fold
[21]
  neutralization IC50: 0.03 µg/mL
[16]
  neutralization IC50: 6.6 µg/mL
[22]
  neutralization IC50: 0.2 µg/mL
[17]
  neutralization IC50: 0.09 µg/mL
[18]
  neutralization IC50: 41 µg/mL
[23]
  neutralization IC50: 0.9 µg/mL

## NIH45-46 IgG (wild type) (antibody)
[29]
  In vitro neutralization IC50: 0.9 µg/mL
[30]
  In vitro neutralization IC50: > 50 µg/mL
[31]
  In vitro neutralization IC50: 0.5 µg/mL
[32]
  In vitro neutralization IC50: 0.5 µg/mL
[33]
  In vitro neutralization IC50: 0.05 µg/mL
[34]
  In vitro neutralization IC50: 0.7 µg/mL
[35]
  In vitro neutralization IC50: 1.9 µg/mL
[1]
  In vitro neutralization IC80: 0.054 µg/mL
[2]
  In vitro neutralization IC80: 24.5 µg/mL
